The results in this text go back to patent publication US20090275124A1 (DYAX, published 2009).

B1: 539C-M0016-E11 (Fab, V domains shown)
VH: EVQLLESGGGLVQPGGSLRLSCAASGFTFSFYVMDWVRQAPGKGLEWVSGIGPSGGSTDYADSVKGRFTISRDNSKNTLYLQMNSLRAEDTAVYYCTRIRYDSSGYPTDAFDIWGQGTMVTVSS
VL: DIQMTQSPATLSLSPGERATLSCRASQSVSSYLAWYQQKPGQAPRLLIYDASNRATGIPARFSGSGSGTDFTLTISSLEPEDFAVYYCQQRSNWPLTFGGGTKVEIKR
notes: It was tested as Fab on phage, as soluble Fab, and biotinylated in the ECL assay
B2: 539C-M0021-E01 (Fab, V domains shown)
VH: EVQLLESGGGLVQPGGSLRLSCAASGFTFSVYPMIWVRQAPGKGLEWVSYISSSGGQTWYADSVKGRFTISRDNSKNTLYLQMNSLRAEDTATYYCARGDDYDSSGPDYWGQGTLVTVSS
VL: DIQMTQSPSSLSASEGDRITLTCRASQSISIYLNWYQQKPGRAPKLLMYAATTLQSGVPSRFSGSGSGTDFTLTISGLRPEDFATYYCQQSYDIPLTFGGGTKVEIKR
notes: It was tested as Fab on phage and as soluble Fab
B3: 539C-R0010-B06 (Fab, V domains shown)
VH: EVQLLESGGGLVQPGGSLRLSCAASGFTFSEYQMNWVRQAPGKGLEWVSSIYSSGGGTAYADSVKGRFTISRDNSKNTLYLQMNSLRAEDTAVYYCAKDQGDGYNYGVGLDYWGQGTLVTVSS
VL: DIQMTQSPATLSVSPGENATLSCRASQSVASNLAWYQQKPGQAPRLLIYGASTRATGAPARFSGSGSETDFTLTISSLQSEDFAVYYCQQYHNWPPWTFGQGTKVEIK
notes: A Fab from the phage display library with a kappa light chain; Only the starts of the constant regions are printed (RTVAAPS)
B4: 539C-R0010-E06 (Fab, V domains shown)
VH: EVQLLESGGGLVQPGGSLRLSCAASGFTFSDYWMFWVRQAPGKGLEWVSGIGPSGGIISYADSVKGRFTISRDNSKNTLYLQMNSLRAEDTAVYYCAKYGDYVSGFDYWGQGTLVTVSS
VL: QSALTQPASVSGSPGQSITISCTGTSSDVGGYKLVSWYQQHPGKVPKLIISEVSYRPSGVSNRFSGSKSGNAASLTISGLQAEDEADYYCSSYTSTSTWVFGGGTKLTVL
notes: A Fab from the phage display library with a lambda light chain; Only the starts of the constant regions are printed
B5: 539C-R0010-D06 (Fab, V domains shown)
VH: EVQLLESGGGLVQPGGSLRLSCAASGFTFSDYSMYWVRQAPGKGLEWVSYISSSGGNTEYADSVKGRFTISRDNSKNTLYLQMNSLRAEDTAMYYCATTPSIWLGDLLENGPYWGQGTLVTVSS
VL: QYELTQPHSVSESPGKTVTISCTRSNGTIDNSFVQWYQQRPGSAPTTVIYEDTQRPSGVPDRFSGSIDSSSNSASLTISGLKTEDEADYYCQSYDSTNRGVFGGGTKLTVL
notes: A Fab from the phage display library with a lambda light chain; Only the starts of the constant regions are printed (GQPKAAP)
B6: 539C-R0010-F05 (Fab, V domains shown)
VH: EVQLLESGGGLVQPGGSLRLSCAASGFTFSWYAMVWVRQAPGKGLEWVSGISPSGGLTSYADSVKGRFTISRDNSKNTLYLQMNSLRAEDTAVYYCARKQMSPDYYYGMDVWGQGTTVTVSS
VL: QSVLTQPPSVSVAPGQTATISCEGDNIGSKSVHWYQQRPGQAPVLVVYDDYDRPSGIPERFSGFNSGNTATLTIYRVEAGDEADFYCQVRDSRTEERVFGGGTKLTVL
notes: as for B4
B7: 539C-R0010-C06 (Fab, V domains shown)
VH: EVQLLESGGGLVQPGGSLRLSCAASGFTFSSYNMAWVRQAPGKGLEWVSVIVPSGGLTGYADSVKGRFTISRDNSKNTLYLQMNSLRAEDTAVYYCARERGGFYSSGWYRYWFDPWGQGTLVTVSS
VL: DIQMTQSPSSLSASVGDRVTITCRASQNINTFLNWYQQKPGKAPKLLIYGASSLQSGVPSRFSGSGSGTDFTLTISSLQPEDFATYYCQQSSDALVYNFGQGTKLEIK
notes: A Fab from the phage display library with a kappa light chain; Only the starts of the constant regions are printed
B8: 539C-R0004-G04 (Fab, V domains shown)
VH: EVQLLESGGGLVQPGGSLRLSCAASGFTFSDYDMHWVRQAPGKGLEWVSGISPSGGWTWYADSVKGRFTISRDNSKNTLYLQMNSLRAEDTAVYYCARDWYSSGLDYWGQGTLVTVSS
VL: QYELTQPPSVSVAPGQTARIICGGNDIGSKGVHWYHQKAGQAPVLLVYDNTDRPSGIPERFSGSNSGNTAALTITRVEAGDEADYFCQVWDSTGEHAVFGGGTKLTVL
notes: A Fab from the phage display library with a lambda light chain; Only the starts of the constant regions are printed; The VL is built from the FR/CDR columns because the joined LV-AA print (r109-r111) reads ADYEC where LV-FR3 reads ADYFC
B9: 539C-R0010-C05 (Fab, V domains shown)
VH: EVQLLESGGGLVQPGGSLRLSCAASGFTFSGYGMGWVRQAPGKGLEWVSYIVPSGGATDYADSVKGRFTISRDNSKNTLYLQMNSLRAEDTAVYYCARAYYYDSSGFDIWGQGTMVTVSS
VL: DIQMTQSPSSLSASVGDRVTITCLPSQDISVYLNWYQQKPGEAPKLLISATSDLQSGVPSRFGGSGYGTDFSLTITSLQREDFATYYCQQSYSLPFTFGGGTRVEIK
notes: as for B7
B10: 539C-R0010-F06 (Fab, V domains shown)
VH: EVQLLESGGGLVQPGGSLRLSCAASGFTFSDYHMSWVRQAPGKGLEWVSGISSSGGETFYADSVKGRFTISRDNSKNTLYLQMNSLRAEDTAVYYCASGSHRDGYNLGYFDYWGQGTLVTVSS
VL: DIQMTQSPASLSASVGDRVTITCQASRDIGEYLNWYQQKAGKPPKLLISDATTLETGVPSRFSGTGSGTEFLFTISSVEPEDFATYYCQQYDDLTWISFGPGTRLDVK
notes: as for B7

The target of one assay is T1, DX-2400.
T1 construct: Only the variable domains are printed (joined from rows r3-r12 and r17-r26); It was biotinylated for phage selection; also called DX-2400 IgG; fully human monoclonal anti-MMP-14 antibody
In words: phage ELISA. An excerpt: Three rounds of selection were done against biotinylated DX-2400 after depleting the library using biotinylated-DX-2300 IgG (control antibody that binds unrelated target) and biotinylated matched Vk Fab (371L-X002-A03) (isotype matched control) immobilized on streptavidin magnetic beads. […] Forty-nine unique phage clones which had distinct heavy chains were secondarily screened by phage ELISA and ranked for specific binding to DX-2400. Later 45 soluble Fabs were expressed, purified and screened for non-specific binding to 5% human, cyno, rat, and mouse serum antibodies by using Fab as capture reagent and detecting with alkaline phosphatase-conjugated mouse anti-human Fc gamma-specific antibody.
For orientation: An ELISA detects its analyte on a solid surface through an enzyme-linked reagent.
As to B1, the binding result is on record as “binds”.

For a further assay, the target named is T1, DX-2400. In words: phage display selection and ELISA screening. From the text: Anti-idiotypic Fabs for DX-2400 were generated by phage selection and screenings using DX-2400 as a target. […] Forty nine were distinct as determined by DNA sequencing. These 49 unique clones were screened as phages and sFabs (soluble Fabs) in 5% pooled normal serum matrices (human, mouse, rat and cynomolgus monkey). Top 10 unique clones were ranked according to the following criteria: strong binding to DX-2400, weak binding to DX-2300, low-non specific binding to streptavidin and Fab control.
In the case of B2, the binding result is reported as “binds”.
On the same count and under the same terms, to B3 belongs “binds”.
The same measure, in the same setting: to B4 belongs “binds”; to B5, “binds”; to B6, “binds”.
Same read-out and setting: in the case of B7 it was “binds”; in that of B8, “binds”.
Take B9: the binding result was “binds”.
For B10, the binding result is recorded as “binds”.
